Experimental data published in patent publication US20250368754A1 (KANAPH THERAPEUTICS, published 2025).

T1: human FAP on HEK293-hFAP cells (human, UniProt Q12884 1-760)
T1 construct: whole, on cells; also called human FAP-expressing cell line
T1 sequence (looked up): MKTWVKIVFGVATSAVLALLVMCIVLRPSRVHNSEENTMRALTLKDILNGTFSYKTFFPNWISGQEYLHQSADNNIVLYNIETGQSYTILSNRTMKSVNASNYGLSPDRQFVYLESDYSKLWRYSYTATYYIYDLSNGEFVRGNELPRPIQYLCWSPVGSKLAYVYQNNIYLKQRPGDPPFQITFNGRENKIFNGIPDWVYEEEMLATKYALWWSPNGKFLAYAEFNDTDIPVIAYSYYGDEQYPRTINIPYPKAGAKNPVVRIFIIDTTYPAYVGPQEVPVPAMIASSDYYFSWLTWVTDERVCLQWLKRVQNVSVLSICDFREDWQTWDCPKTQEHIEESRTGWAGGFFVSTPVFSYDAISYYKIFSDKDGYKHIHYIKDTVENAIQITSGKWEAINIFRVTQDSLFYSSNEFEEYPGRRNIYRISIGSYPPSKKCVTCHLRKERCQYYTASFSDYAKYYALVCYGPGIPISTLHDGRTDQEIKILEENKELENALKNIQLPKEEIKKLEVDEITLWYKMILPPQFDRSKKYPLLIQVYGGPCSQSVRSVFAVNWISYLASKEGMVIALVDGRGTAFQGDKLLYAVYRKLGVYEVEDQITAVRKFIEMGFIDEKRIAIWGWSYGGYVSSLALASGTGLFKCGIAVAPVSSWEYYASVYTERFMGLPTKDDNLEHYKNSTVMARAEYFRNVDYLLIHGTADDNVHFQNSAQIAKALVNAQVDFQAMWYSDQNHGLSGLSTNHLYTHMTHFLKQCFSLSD

T2: human DcR3 (human, UniProt O95407 30-300)
T2 construct: also called LIGHT receptor DcR3
T2 sequence (looked up): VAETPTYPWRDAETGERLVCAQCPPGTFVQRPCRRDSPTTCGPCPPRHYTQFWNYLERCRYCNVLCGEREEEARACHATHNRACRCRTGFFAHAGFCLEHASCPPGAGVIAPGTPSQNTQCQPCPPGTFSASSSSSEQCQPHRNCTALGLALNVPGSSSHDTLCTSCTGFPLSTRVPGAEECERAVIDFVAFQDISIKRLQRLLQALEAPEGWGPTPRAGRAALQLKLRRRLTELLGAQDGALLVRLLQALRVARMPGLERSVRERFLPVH

B1: T3.01 (anti-hu FAP/hu scLIGHT3, hu IgG1 DANG) (bispecific antibody)
heavy: QVQLVQSGAEVKKPGASVKVSCKTSRYTFTEYTIHWVRQAPGQRLEWIGGINPNNGIPNYNQKFKGRVTITVDTSASTAYMELSSLRSEDTAVYYCARRRIAYGYDEGHAMDYWGQGTLVTVSSASTKGPSVFPLAPSSKSTSGGTAALGCLVKDYFPEPVTVSWNSGALTSGVHTFPAVLQSSGLYSLSSVVTVPSSSLGTQTYICNVNHKPSNTKVDKKVEPKSCDKTHTCPPCPAPELLGGPSVFLFPPKPKDTLMISRTPEVTCVVVAVSHEDPEVKFNWYVDGVEVHNAKTKPREEQYGSTYRVVSVLTVLHQDWLNGKEYKCKVSNKALPAPIEKTISKAKGQPREPQVYTLPPSRDELTKNQVSLWCLVKGFYPSDIAVEWESNGQPENNYKTTPPVLDSDGSFFLYSKLTVDKSRWQQGNVFSCSVMHEALHNHYTQKSLSLSPGK
light: not shown
chain: not shown
notes: Knob-into-hole heterodimer: one anti-FAP Fab arm and one single-chain human LIGHT (91-240) homotrimer arm
B2: T3.14 (anti-hu FAP/hu scLIGHT-LTb2, hu IgG1 DANG) (bispecific antibody)
heavy: B1 heavy
light: not shown
chain: not shown
notes: Knob-into-hole; single-chain heterotrimer of one human LIGHT and two human lymphotoxin beta (87-243)

How the values were obtained:
[1] = target: human LTβR on A375 cells (human, UniProt P36941 31-435); assay: cell-based or functional assay
[2] = target: T1, human FAP on HEK293-hFAP cells; assay: flow cytometry on HEK293-hFAP cells, 1 ug protein per 1x10^5 cells, anti-human IgG detection (axis TMEkine-PE)
Method: Specifically, the cell line was prepared by suspending in a FACS buffer solution at 1×10⁵ cells/100 μL, and treated with 1 μg each of T3.10, T3.01, T3.05, T3.06, T3.14, and T3.18. The cells were washed twice with a FACS buffer solution. The cells were stained with an anti-human IgG antibody (Biolegend). The negative control sample was stained only with an anti-human IgG antibody (Biolegend). The expression ratio of the stained cells was measured using BD LSR and analyzed using FlowJo software.

[3] = target: T2, human DcR3; assay: SPR, human DcR3 immobilised on CM5, fusion protein as analyte, 1:1 binding model
Method: Specifically, the surface of the CM5 chip was activated with a 1:1 mixture of […], and 5 to 6 μg/mL of human DcR3 was immobilized for 60 seconds at a rate of 10 μL/min. The remaining active ester groups were blocked with 1 M ethanolamine. T3.01, T3.07, T3.09, T3.14, and T3.18 were each diluted to 50 nM or 200 nM in 1×HBS-EP+buffer solution and diluted by serial dilution. The diluted fusion proteins were reacted at a rate of 30 μL/min. The association and dissociation times were 180 seconds and 400 seconds, respectively. After the dissociation step, stabilization was performed for 60 seconds, and then the regeneration step was performed for 30 seconds with a 10 mM glycine pH 1.5 solution at a rate of 30 μL/min.

Chain of human LTβR on A375 cells (P36941 31-435): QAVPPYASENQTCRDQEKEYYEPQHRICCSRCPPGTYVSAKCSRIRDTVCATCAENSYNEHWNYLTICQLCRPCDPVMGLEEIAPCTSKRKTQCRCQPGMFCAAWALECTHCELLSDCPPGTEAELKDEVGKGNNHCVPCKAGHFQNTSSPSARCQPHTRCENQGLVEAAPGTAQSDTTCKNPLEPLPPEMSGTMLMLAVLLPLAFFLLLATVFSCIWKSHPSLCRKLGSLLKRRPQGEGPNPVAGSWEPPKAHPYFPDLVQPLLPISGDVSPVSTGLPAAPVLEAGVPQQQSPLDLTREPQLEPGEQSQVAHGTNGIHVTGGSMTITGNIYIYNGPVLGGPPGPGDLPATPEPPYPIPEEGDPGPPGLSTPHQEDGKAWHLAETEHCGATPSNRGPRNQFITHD

Row | Binder | IL-8 secretion of A375 cells, EC50 (FIG. 15a) [1] [nM] | IL-8 secretion of A375 cells, EC50 (FIG. 15b) [1] [nM] | percent of cells in the positive gate [2] [%] | Kd [3] [nM] | koff [3] [s⁻¹] | kon [3] [M⁻¹ s⁻¹]
1 | B1 | 0.0368 | 0.0469 | 99.5 | 0.357 | 0.000236 | 662000
2 | B2 | 0.0558 |  | 99.9 | 9.72 | 0.00198 | 204000
